Test results taken from patent CN115850461A (INST MICROBIOLOGY CAS, dated 2023).

Assays:
[1] = target: SARS-CoV-2 Prototype(PT)假病毒 S蛋白 (SARS-CoV-2 (Prototype), UniProt P0DTC2 14-1273); test: cell-based or functional assay
GD/1/2019 假病毒 S蛋白 = GD/1/2019 假病毒 S蛋白 (sarbecovirus GD/1/2019); test: cell-based or functional assay
RaTG13 假病毒 S蛋白 = RaTG13 假病毒 S蛋白 (sarbecovirus RaTG13); test: cell-based or functional assay
SARS-CoV 假病毒 S蛋白 = SARS-CoV 假病毒 S蛋白 (SARS-CoV, UniProt P59594 14-1255); test: cell-based or functional assay
WIV1 假病毒 S蛋白 = WIV1 假病毒 S蛋白 (sarbecovirus WIV1); test: cell-based or functional assay
[2] = target: T1, SARS-CoV-2 Prototype株(PT)RBD蛋白 (SARS-CoV-2 (Prototype), UniProt P0DTC2 319-541); test: SPR, Biacore 8K; 74 captured on protein A chip, RBD as analyte
T1 construct: domain: RBD

SARS-CoV RBD蛋白 = SARS-CoV RBD蛋白 (SARS-CoV, UniProt P59594 306-527); test: as above

B1: 沙贝病毒广谱人源中和抗体74 (antibody, V domains shown)
VH: QVQLVQSGAQLKKPGESLKISCKGSGYNFSRYWIAWVRHMPGKGLEVMGIIYPDDSDTRYSPSVRGQVTISADKSTSIVYLQWSSLKASDTGIYYCARFGAGMTGMPRYFDTTRWFDPWGQGTQVTVSS
VL: QSVLTQPPSVSGAPGQRVTISCLGGSSNIGAGYDVHWYQHLPGAAPKLLISGNSNRPSGVPARFSGSKSGTSASLAITGLQAEDEADYYCQSYDNDLSQVFGGGTKLTVLG
IC50, 假病毒中和 [1]: 0.95 µg/mL | IC50, 假病毒中和 (GD/1/2019 假病毒 S蛋白): 0.0028 µg/mL | IC50, 假病毒中和 (RaTG13 假病毒 S蛋白): > 100 µg/mL | IC50, 假病毒中和 (SARS-CoV 假病毒 S蛋白): 0.041 µg/mL | IC50, 假病毒中和 (WIV1 假病毒 S蛋白): 0.14 µg/mL | Kd [2]: < 0.0156 nM | koff [2]: 9.52e-08 s⁻¹ | kon [2]: 640000 M⁻¹ s⁻¹ | Kd (SARS-CoV RBD蛋白): < 0.00606 nM | koff (SARS-CoV RBD蛋白): 6.47e-06 s⁻¹ | kon (SARS-CoV RBD蛋白): 1.65e+06 M⁻¹ s⁻¹
